Reference: patent publication US11311577B2, “Coordinating gene expression using RNA destabilizing elements” (Chimera Bioengineering, Inc., priority 2018, dated 2022)

System: T-cells
Assay: Removal of microRNA binding sites from an RDE: expression from constructs, GFP in T-cells
Assay type: cell-based
Conditions: MIR186 micro-RNA sites removed from the 3′-UTR of IL-2
Source text: The AU-rich element from the 3′-UTR of IL-2 has mir-181 and mir 186 microRNA binding sites. Different combinations of the microRNA sites were removed from the 3′-UTR of IL-2. When the MIR186 micro-RNA sites were removed from the 3′-UTR of IL-2 the dynamic range of expression from constructs with this UTR increased 50 fold. The modified IL-2, 3′-UTR replaces CTT in the sequence with GAA and is shown below (the new GAA is underlined in the sequence):
Different combinations of the micro-RNA sites were removed from the 3′UTR of IFNg and tested for increased expression. When the mir125 micro-RNA sites were removed from the 3′-UTR of IFN-γ the expression rate from constructs with this UTR is increased.
Expression of GFP in T-cells, transfected with the RDE-GFP plus the microRNA sites, is compared to expression of GFP in T-cells with the RDE-GFP in which the microRNA sites have been removed, following activation with CD3/CD28 beads for 24 hours. The removal of the microRNA sites increased expression of the GFP by a factor of between 2-5 after 24 hours, relative to the cells with microRNA sites.

B1: modified IL-2, 3′-UTR: IL-2 3′-UTR with MIR186 micro-RNA sites removed, CTT replaced with GAA (SEQ ID NO: 22) (nucleic acid, listed as Homo sapiens)
DNA: TAATTAAGTGCTTCCCACTTAAAACATATCAGGCCTTCTATTTATTTAAATATTTAAATTTTATATTTATTGTTGAATGTATGGTTTGCTACCTATTGTAACTATTATTCTTAATCTTAAAACTATAAATATGGATCTTTTATGATTGAATTTGTAAGCCCTAGGGGCTCTAAAATGGTTTCACTTATTTATCCCAAAATATTTATTATTATGTTGAATGTTAAATATAGTATCTATGTAGATTGGTTAGTAAAACTATTTAATAAATTTGATAAATATAAA
- increase of dynamic range of expression: 50 fold
